Results on three molecules are retold here after US20180326085A1 (Merck KGaA, published 2018).

The target of assay [1] is T1, c-MET and EGFR co-expressed on cells (human, UniProt P08581;P00533).
T1 construct: endogenous receptor on the cell surface; not a complex: two separate receptors on the same cell; used as target only for bispecific c-MET x EGFR molecules, whose cell staining cannot be split between the two arms; also called cells that carry both receptors: NCI-H441, EBC-1, A431, MKN-45, A549, HepG2 (cell line under assay)
In words: flow cytometry, A549 cells (c-MET+ EGFR++).

Assay [2] deals with T1, c-MET and EGFR co-expressed on cells. In words: flow cytometry, HepG2 cells (c-MET+ EGFR+). On the technique in general: In flow cytometry, cells or beads pass a laser one at a time.
The target is the same in assay [3]. In words: flow cytometry, A431 cells (c-MET+ EGFR+++).
Assay [4] has as its target T2, c-MET on cells (human, UniProt P08581).
T2 construct: endogenous receptor on the cell surface; for A549 cells m4 is used; also called HGFR; on NCI-H441, EBC-1, A431, MKN-45, SK-MEL2 or HepG2 cells (cell line under assay)
Nature of the assay: flow cytometry, SK-MEL2 cells (c-MET+ EGFR-).

The target in assay [5] is T1, c-MET and EGFR co-expressed on cells. Nature of the assay: flow cytometry, EBC-1 cells (c-MET+++ EGFR++).
Assay [6] shares this target. In words: flow cytometry, MKN-45 cells (c-MET+++ EGFR++).
The target of assay [7] is T3, EGFR (soluble extracellular domain) (human, UniProt P00533).
T3 construct: soluble extracellular domain; also called Human EGFR extracellular domain, R&D Systems 1095-ER
Nature of the assay: BLI (Octet), antibody on anti-human Fc biosensors, soluble EGFR ECD as analyte.

The target in assay [8] is T4, biotinylated recombinant human c-MET ECD (HGFR extracellular domain) (human, UniProt P08581 25-932, biotinylated (sites not given)).
T4 construct: extracellular domain; also called human c-MET ECD-His
Nature of the assay: BLI (Octet), antibody on anti-human Fc biosensors, soluble c-MET ECD as analyte. For orientation: BLI is a label-free optical method that tracks binding on a fibre tip over time.

Assay [9] has as its target T1, c-MET and EGFR co-expressed on cells. In words: flow cytometry on NCI-H441 cells (express c-MET and EGFR), FITC anti-human Fc, n=3.
Assay [10] concerns the target T5, c-MET (hepatocyte growth factor receptor) on A549 cells (human, UniProt P08581 25-1390).
T5 construct: whole, on cells; Endogenous receptor of A549 cells; phosphorylation read out in cell lysates; also called HGFR
In words: flow cytometry, A549 cells (c-MET+ EGFR++).

In assay [11] the target is T2, c-MET on cells. In words: flow cytometry, HepG2 cells (c-MET+ EGFR+).
Assay [12] has as its target T2, c-MET on cells. In words: flow cytometry, A431 cells (c-MET+ EGFR+++).
Assay [13] deals with T2, c-MET on cells. Nature of the assay: flow cytometry, EBC-1 cells (c-MET+++ EGFR++).
Assay [14] concerns the target T2, c-MET on cells. Nature of the assay: flow cytometry, MKN-45 cells (c-MET+++ EGFR++).
The target of assay [15] is T2, c-MET on cells. Nature of the assay: flow cytometry on NCI-H441 cells (express c-MET and EGFR), FITC anti-human Fc, n=3.
The target in assay [16] is T4, biotinylated recombinant human c-MET …. Nature of the assay: HGF competition ELISA: HGF on the plate, biotinylated c-MET ECD pre-incubated with the antibody; blocked ligand HGF. Background: An ELISA detects its analyte on a solid surface through an enzyme-linked reagent.

B1: B10v5x225-H (bispecific c-MET x EGFR SEEDbody) (bispecific antibody, V domains shown)
VH 1: not shown
VL 1: EPVLTQPPSVSVAPGETATIPCGGDSLGSKIVHWYQQRPGQAPLLVVYDDAARPSGIPERFSGSKSGTTATLTISSVEAGDEADYFCQVYDYHSDVEVFGGGTKLTVLGQPKAA
VH 2: EVQLVQSGAEVKKPGASVKVSCKASGFSLTNYGVHWMRQAPGQGLEWIGVIWSGGNTDYNTPFTSRVTITSDKSTSTAYMELSSLRSEDTAVYYCARALDYYDYEFAYWGQGTLVTVSS
VL 2: DIQMTQSPSSLSASVGDRVTITCRASQSIGTNIHWYQQKPGKAPKLLIKYASESISGVPSRFSGSGYGTDFTLTISSLQPEDVATYYCQQNNEWPNTFGQGTKVEIK
notes: hu225-H); SEEDbody format (IgG1 hinge-CH2-SEED CH3)
As usually defined, the Kd is the equilibrium constant for the complex coming apart. Usually koff stands for the first-order rate constant of dissociation. For orientation: kon means a measure of how fast the partners come together. The EC50 (read off the curve) is the concentration at which the effect is half-maximal. Higher therefore signals a less potent agent. On to B1, for which the “MFI at 100 nM” value turned out to be 335 in assay [1]; 352 in assay [2]; 1760 in assay [3]; 222 in the assay with c-MET on cells [4]; 2060 in [5]; 1330 in assay [6]. In addition, the Kd in assay [7] was 0.15 nM; in assay [8] it was 0.36 nM. For the same molecule, the koff in [7] is 0.00053 s⁻¹; in [8], 0.00015 s⁻¹. The values for the kon in [7] and in assay [8] were 3.5e+06 M⁻¹ s⁻¹ and 400000 M⁻¹ s⁻¹, respectively. The “EC50 (read off the curve)” value in assay [9] was ~0.5 nM.

B2: oa CS06 (antibody, V domains shown)
VH: QVQLQQSGAEVKKPGSSAKVSCKASGGTFSSNAISWVRQAPGQGLEWMGGIIPIFGTAIYAQKFQGRVTITADESTSTAYMELSSLRSEDTAVYYCARDQRGYYYYYYYGMDVWGQGTTVTVSS
VL: QLVLTQSPSVSVAPGKTARITCGGNNIRNVGVHWYQKKPGQAPILVVYDDDDRPSGVPERFSGSNSGNTATLTISRVEAGDEADYYCQVWDSATDQRVFGGGTKLTVLG
notes: one-armed (monovalent) anti-c-MET SEED molecule; also called one-armed CS06
B2: the “MFI at 100 nM” value in assay [10] amounted to 147; in the assay with c-MET on cells [11], 296; with c-MET on cells [12], 37; with c-MET on cells [4] it was 213; with c-MET on cells [13] it was 2630; with c-MET on cells [14] it was 1490. Further, the Kd in assay [8] was 0.19 nM. Besides, in assay [8], the dissociation rate constant (koff) was determined as 0.00021 s⁻¹. In addition, the kon in assay [8] came out at 1.1e+06 M⁻¹ s⁻¹. Also, in the assay with c-MET on cells [15], the “EC50 (read off the curve)” value was ~0.3 nM. The “IC50 (read off the curve)” value in assay [16] is ~8 nM.

B3: oa B10v5 (antibody, V domains shown)
VH: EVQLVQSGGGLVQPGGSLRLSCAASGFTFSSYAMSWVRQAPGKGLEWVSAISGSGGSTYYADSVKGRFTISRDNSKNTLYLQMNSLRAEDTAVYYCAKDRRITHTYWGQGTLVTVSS
VL: EPVLTQPPSVSVAPGETATIPCGGDSLGSKIVHWYQQRPGQAPLLVVYDDAARPSGIPERFSGSKSGTTATLTISSVEAGDEADYFCQVYDYHSDVEVFGGGTKLTVLG
notes: one-armed (monovalent) anti-c-MET SEED molecule; also called one-armed B10v5
With B3, the “MFI at 100 nM” value in [10] came to 91; with c-MET on cells [11], 399; with c-MET on cells [12], 49; with c-MET on cells [4], 272; in the assay with c-MET on cells [13], 2310; with c-MET on cells [14], 1500. Also, in [8], the Kd was determined as 0.38 nM. Moreover, the koff in [8] was 0.00016 s⁻¹. The kon in assay [8] came out at 400000 M⁻¹ s⁻¹. Besides, in the assay with c-MET on cells [15], the “EC50 (read off the curve)” value was ~1 nM. Also, in assay [16], the “IC50 (read off the curve)” value is ~6 nM.
